Laboratory results as given in patent publication US20050226876A1 (Hoffmann-La Roche, published 2005).

How the values were obtained:
[1] = biological target: T1, cynomologus P-selectin (on thrombin-activated cynomologus platelets) (cynomologus monkey); experiment: cell-based or functional assay
T1 chain: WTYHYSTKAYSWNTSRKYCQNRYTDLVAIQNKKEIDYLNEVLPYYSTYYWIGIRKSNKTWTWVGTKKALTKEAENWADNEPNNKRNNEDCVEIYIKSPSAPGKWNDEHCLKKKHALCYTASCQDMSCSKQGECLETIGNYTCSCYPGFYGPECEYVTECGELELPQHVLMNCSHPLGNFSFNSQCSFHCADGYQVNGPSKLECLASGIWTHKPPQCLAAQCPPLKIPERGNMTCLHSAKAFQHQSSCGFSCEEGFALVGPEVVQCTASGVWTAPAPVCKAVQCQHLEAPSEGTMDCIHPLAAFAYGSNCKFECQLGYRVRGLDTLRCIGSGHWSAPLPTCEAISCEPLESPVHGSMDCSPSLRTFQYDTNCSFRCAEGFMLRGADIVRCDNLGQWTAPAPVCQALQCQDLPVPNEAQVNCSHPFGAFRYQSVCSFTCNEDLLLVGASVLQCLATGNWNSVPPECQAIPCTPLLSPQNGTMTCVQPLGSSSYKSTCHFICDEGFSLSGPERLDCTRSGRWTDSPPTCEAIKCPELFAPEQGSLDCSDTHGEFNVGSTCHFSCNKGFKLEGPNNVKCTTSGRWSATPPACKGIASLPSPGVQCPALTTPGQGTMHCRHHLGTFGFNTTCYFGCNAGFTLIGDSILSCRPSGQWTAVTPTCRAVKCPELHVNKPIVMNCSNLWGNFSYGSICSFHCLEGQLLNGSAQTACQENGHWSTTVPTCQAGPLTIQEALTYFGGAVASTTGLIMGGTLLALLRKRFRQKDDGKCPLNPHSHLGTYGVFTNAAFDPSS

[2] = biological target: T2, Fcγ receptor on human NK cells (FcγRIII) (human, UniProt P08637 17-254); experiment: FACS on NK cells from human blood, antibody 10 µg/ml; no antibody: 0.03
T2 construct: whole, on cells; also called FcγR presented on NK cells
T2 sequence (P08637 17-254): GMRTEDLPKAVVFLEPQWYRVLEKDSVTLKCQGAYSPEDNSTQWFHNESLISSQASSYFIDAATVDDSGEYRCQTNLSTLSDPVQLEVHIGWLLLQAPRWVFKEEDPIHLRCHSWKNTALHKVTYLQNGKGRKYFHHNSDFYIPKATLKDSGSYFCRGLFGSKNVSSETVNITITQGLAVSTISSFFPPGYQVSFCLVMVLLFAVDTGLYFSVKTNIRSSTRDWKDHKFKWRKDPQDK

[3] = biological target: T3, rat P-selectin (on thrombin-activated rat platelets) (rat, UniProt P98106 42-768); experiment: rosetting assay: adhesion of thrombin-activated rat platelets to HL60 cells, FACS; absence of inhibition, shown as lack of cross-reactivity with rat P-selectin
T3 construct: whole, on cells
T3 sequence (looked up): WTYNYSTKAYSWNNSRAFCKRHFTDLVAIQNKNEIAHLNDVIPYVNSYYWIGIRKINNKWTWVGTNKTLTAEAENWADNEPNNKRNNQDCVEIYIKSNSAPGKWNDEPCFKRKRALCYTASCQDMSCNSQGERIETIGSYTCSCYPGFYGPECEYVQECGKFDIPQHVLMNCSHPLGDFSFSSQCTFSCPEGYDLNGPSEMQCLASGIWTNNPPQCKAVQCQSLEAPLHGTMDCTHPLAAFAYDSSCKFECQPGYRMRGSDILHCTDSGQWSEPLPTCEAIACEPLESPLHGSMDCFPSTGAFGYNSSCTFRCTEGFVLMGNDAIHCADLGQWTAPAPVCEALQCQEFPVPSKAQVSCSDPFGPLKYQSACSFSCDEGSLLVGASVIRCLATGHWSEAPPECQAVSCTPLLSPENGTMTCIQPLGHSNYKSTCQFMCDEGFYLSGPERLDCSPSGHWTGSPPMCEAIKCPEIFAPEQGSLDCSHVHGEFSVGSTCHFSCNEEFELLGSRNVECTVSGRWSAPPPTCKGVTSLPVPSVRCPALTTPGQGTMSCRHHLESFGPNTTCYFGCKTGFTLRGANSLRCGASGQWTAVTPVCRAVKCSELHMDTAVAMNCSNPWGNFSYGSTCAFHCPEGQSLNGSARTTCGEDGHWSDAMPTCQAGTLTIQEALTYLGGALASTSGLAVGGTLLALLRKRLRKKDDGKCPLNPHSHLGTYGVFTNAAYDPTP

IC50 (read off the curve), rosetting assay with thrombin-activated cynomologus platelets and HL60 cells [1]: ~0.2 µg/ml | % NK cells binding antibody [2]: 0.12% | binding result [3]: no binding (tested: 100 µg/ml)
B1: HuMab 002 Fc variant IgG1v1 (PVA-236; GLPSS331: E233P; L234V; L235A; delta G236; A327G; A330S; P331S) (antibody)
heavy: EVQLVESGGGLVRPGGSLRLSCAASGFTFSNYDMHWVRQATGKGLEWVSAITAAGDIYYPGSVKGRFTISRENAKNSLYLQMNSLRAGDTAVYYCARGRYSGSGSYYNDWFDPWGQGTLVTVSSASTKGPSVFPLAPSSKSTSGGTAALGCLVKDYFPEPVTVSWNSGALTSGVHTFPAVLQSSGLYSLSSVVTVPSSSLGTQTYICNVNHKPSNTKVDKKVEPKSCDKTHTCPPCPAPPVAGPSVFLFPPKPKDTLMISRTPEVTCVVVDVSHEDPEVKFNWYVDGVEVHNAKTKPREEQYNSTYRVVSVLTVLHQDWLNGKEYKCKVSNKGLPSSIEKTISKAKGQPREPQVYTLPPSRDELTKNQVSLTCLVKGFYPSDIAVEWESNGQPENNYKTTPPVLDSDGSFFLYSKLTVDKSRWQQGNVFSCSVMHEALHNHYTQKSLSLSPGK
light: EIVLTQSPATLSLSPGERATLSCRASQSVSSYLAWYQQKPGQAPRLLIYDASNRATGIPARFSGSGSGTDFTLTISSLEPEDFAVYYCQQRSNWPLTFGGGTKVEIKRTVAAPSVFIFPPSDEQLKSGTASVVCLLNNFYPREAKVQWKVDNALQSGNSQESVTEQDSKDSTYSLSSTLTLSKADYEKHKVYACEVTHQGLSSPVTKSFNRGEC
notes: copies: 2 + 2
